Reference: the DeepSol protein solubility set

Test: soluble on expression in E. coli; label from the status in PepcDB or PDB records

Row | Sequence | soluble on expression in E. coli
1 | MGSDKIHHHHHHQQLLLIEKLDGTLEDYLFSDDFDEKVLLSCLFQISFSLHYLQKHYKFTHNDLHINNVMYSETTTKYLYYKFNNQYFKIPTYGKIFKIIDFGRSIFTYNNKIYMNDVFTKNSEAWGQFYYPPQVQFLTKPPEDIPNIEPNYNFDLCRLSMTIIEEIDKSKLSENMFNFLNDMCIDKFNENYCEMEDNFSLYINISKNAINSLPEDILNKTIFKQYKVIKKNFPSKLYYK | not soluble
2 | MTRNPVVAGMFYPAEYHELLEMIEYCYLNPRGPRELPSKRGKYTKPLGIVSPHAGYIYSGPVAAHGYKKISENISGEITAIILGPNHTGLGSGIATMKGTWKTPFGDMEIDNEFADRLWKECDILDMDENSHLREHSIEVQLPFLKHLEDLNIAKFKFVPISMMMQDYESCIDVGYVIAKVARELNRKIVIIASTDFSHYEPQEQASKKDAVVIKDILELNDEEIFTDVVTHTISMCGYGPVIAMVKAMKDLGARTSYLLYYSTSGDVTKDYSEVVGYASLLIKLEHHHHHH | soluble
3 | DHWLRQDLRQMFIEELGSNAREIIQFVVGSHDIGKATPLFQYQKAQKGEVWDSIRYAIDRTGRYQKPLPSSYLVKKTSGGPNRHEQWSSFASKNEYLKPSAAAKENWIGLAIGGHHGRFEPVGYGRHQRKAAEDLAKSGWSAAQQDLLRALEKASGITRASLPSELSPELTLVLSGLTILADRISSTESFVITGARMIDDGTLHLATPIDWLKTRKLDSEKHVAKTVGIYHGWNNHESAIHSILKGYDPRPLQTIALQNQVGLLNLMAPTGNGKTEAAILRHSLKENDRLIFLLPTQATSNAIMRRVQGIYSDTPNVAALAHSLASVEDFYQTPLSVFDDHYDPSKEQFESSMSG | not soluble
4 | MSDTPQAILLMGPTASGKTGLALELARRFPVEIVSVDSALVYRDMDIGTAKPTAEEMAACPHHLIDVISPLQSYSAAQFHADANRLIADIQARGKLPLLVGGTMLYYKALLEGLSDLPQADAALRAELDADAALLGWPAMHARLAELDPATASRLNPNDSQRIHRALEVCLLSGKPMSELIAQGKEAAAGFRFLPLALVPRERGWLHARIAERFRIMLEQGFLDEVSRLRAKYPELTLNLPSMRCVGYRQAWEHQDGLYGHDEFVERGVAATRQLAKRQLTWTRSLDAIPVDAQRDGLAGLLGDAVDDFLAGRPPAESLRYAGDF | soluble
5 | MGSDKIHHHHHHMNLKLDHIIHYLHQLESFKFPGEILELQNGGRHHHLGTFNQIAPIKNSYIELLDVENESKLSNIAKTEEGRVSFATKIVQDHFKQGFKGICFRTKDINQVKSTLENRGVDVIGPIDMERENKKGHQIRWRLLYIANPDYTVKPPFFIEWDNNKKQNLSQIHNFNLSSFKIKEVIITSTQRETTVSLWKEWYNLKIVNETATSTDLKLETDEVIYKIEDGKDSGFHTLIMTDINATAPYSIFIRGAKYRFEPPN | not soluble
6 | AHHHHHHGSFRLRDFEYYNRTVFLRVDLNSPMSNGKIISDARFRAVLPTIKYLIESGAKVVVGTHQGKPYSEEYSTTEEHARILSELLNMHVEYVEDIFGKYARERIKAMKPGEVIVLENLRFSAEEVKNATIEECEKTFFVRKLSQVIDLVVNDAFAAAHRSQPSLVGFARIKPMIMGFLMEKEVDALTKAYESEEKPRVYVLGGAKVDDSLKVAENVLRKEKADLILTGGLVGQLFTLAKGFDLGRENIKFLEKKGILKYVDWAEKILDEFYPYVRTPVDFAIDFKGERVEIDLLSDEKRLFDEYPILDIGSRTVEKYREILLKARIIVANGPMGVFEREEFAVGTIGVFKAIGESPAFSVIGGGHSIASIYKYNITGISHISTGGGAMLTFFAGEKLPVLEALKISYEKFSNLLS | soluble
7 | MTLDEEYLDITFLTENGFVRKRCPKCGKHFWTADPEREICGDPPCESYSFIGNPVFKKPFELDEMREYYLNFFERRGHGRIERYPVVARWRTDIYLTIASIADFQPFVTSGVAPPPANPLTISQPCIRLDDLDSVGRTGRHLTLFEMMAHHAFNYPGKEIYWKNETVAYCTELLNELGVKKEDIVYKEEPWAGGGNAGPCLEAIVGGLEVATLVFMNLEEHPEGDIEIKGARYRKMDNYIVDTGYGLERFVWASKGTPTVYDAIFPEVVDTIIDNSNVSFNREDERVRRIVAESSKLAGIMGELRGERLNQLRKSVADTVGVSVEELEGIVVPLEKVYSLADHTRCILFMLGDGLVPSNAGAGYLARLMIRRSLRLAEELELGLDLYDLVEMHKKILGFEFDVPLSTVQEILELEKERYRTTVSKGTRLVERLVERKKKLEKDDLIELYDSHGIPVELAVGIAAEKGAEVEMPKDIYAELAKRHSKAEKVQEKKITLQNEYPATEKLYYDDPTLLEFEAEVIGVEGDFVILNRSAFYPESGGQDNDVGYLIANGGKFEVVDVLEADGVVLHVVKGAKPEVGTKVKGVIDSDVRWRHMRHHSATHVLLYSLQKVLGNHVWQAGARKEFSKARLDVTHFRRPSEEEIKEIEMLANREILANKPIKWEWMDRIEAERKFGFRLYQGGVPPGRKIRVVQVGDDVQACGGTHCRSTGEIGMLKILKVESIQDGVIRFEFAAGEA | soluble
8 | MLPSISINNTSAAYPESINENNNDEINGLVQEFKNLFNGKEGISTCIKHLLELIKNAIRVNDDPYRSNINNSSVTYIDIGSNDTDHITIGIDNQEPIELPANYKDKELVRTIINDNIVEKTHDINNKEMIFSALKEIYDGDPGFIFDKISHKLRHTVTEFDESGKSEPTDLFTWYGKDKKGDSLAIVIKNKNGNDYLSLGYYDQDDYHIQRGIRINGDSLTQYCSENARSASAWFESSKAIMAESFATGSDHQVVNELNGERLREPNEVFKRLGRAIRYNFQVDDAKFRRDNVKEIISTLFANKVDVDHPENKYKDFKNLEDKVEKRLQNRQTKYQNEINQLSALGVNFDDI | not soluble
9 | MIAASDLKAGMTFEQDGKLIKVMEASHHKPGKGNTVMRMKLKDVRTGSTTDTTMRPDEKVKKAHIDTKPVQYLYSQDDMAIFMDLETYEQYEVPTALIEEELKYLLENMEVKIQFYGEEVIGLTLPTTVILRVAETQPSIKGATVTGSGKPATMETGLVVNVPDFVEADELLEINTAEGTYLKRAK | not soluble
10 | MGSDKIHHHHHHMSARYLDPKKRHEFVFLFDVRDGNPNGDPDAGNLPRVDPETMHGLVTDVALKRKIRDYIALTREGKPRFAIFVQSRVALNRLILEGFQEAGIEPVSLQLAEEQMANESLLEHLDGLAEAGFSREGGTLYYSGQATTEKEIAKLLMGEEEAVAPFKKELEKLAKELAKAVKGRKITEEDRERAQAKLLERFFDIRMFGAVLSTGLNAGQVRGPVQLTFARSLDPIAPLEVSITRVAITREEDRARKETEMGRKPLVPYGLYRAHGFFNPFLAAKTGVQPEDLEALWDALQHLFELDRSAARGEMTVRGLAVFSHEDAKGNAPAHRLFGLIRVERREGVEAPRSFADYRVRAPKEGSLEAHGFPGVHLAWLVRPEGLEDLPPHVG | not soluble
11 | MSFNPDYESVAKAFIQHYYSKFDVGDGMSRAQGLSDLYDPENSYMTFEGQQAKGRDGILQKFTTLGFTKIQRAITVIDSQPLYDGSIQVMVLGQLKTDEDPINPFSQVFILRPNNQGSYFIGNEIFRLDLHNN | not soluble
12 | MGSDKIHHHHHHMKIGITCYPSMGGSGIIATELGIKMAERGHEVHFITSNIPFRIRKPLPNMTFHQVEVNQYAVFQYPPYDITLSTKISDVIQEYDLDILHMHYAVPHAVCGILAKQMSGKNVKIMTTLHGTDITVLGYDHTLQNAIKFGIEQSDIVTSVSHSLAQQTYEIINTKKEIIPIYNFVRENEFPTRHNEELKDCYGISPEEKVLIHVSNFRKVKRIDTVIETFAKVHESIPSKLILLGDGPELIDMRHKARELDVETHVLFLGKQNDVSAFYQLSDLVLLLSEKESFGLTLLEAMKTGVLPIGSHAGGIKEVIRHEETGFIVDIGDSTQAAKYAIKLLSNPELYQKMQSQMLKDIEARFSSDLITDQYENYYRKMLEQGENNNES | not soluble
13 | MAAPAALKRISATVWELPVSYKKGMLVPARIIATEKLINAMDAGVFEQVSNVACLPGIQKYAFCMPDGHWGYGFPIGGLAAMDPETGVISPGGIGFDINCGMRLVLTTLTYEEVKPRLRELVDALFYRVPAGVGSHGFVRLSHDEFCRVAEQGSSWCLKHGYAWPEDLEMTEEHGCFTGADATKVSQRAVDRGYNQIGTLGSGNHYLEVQVARPENIFDEDTARAFGITVPNQVVIMFHCGSRGFGHQVATDYLQLFLSVMEKKYGIRTNDRELACAPFRSREGQDYFAAMKCAVNMAFANRQVILHRIREVFSDVFGRDPGDLGMDMVYDVAHNTAKLETHLVDGKKRELLVHRKGATRAFGPGMEGIPARYRETGQPVIIGGSMETGSYLLAGDPGGGDTFFTTAHGSGRTMSRHQAKKLIKGQKLQRDMEERGIYVRTASWGGLAEEAGQAYKNIDDVAEATELSHLSRRVARLVPIGNVKGLEHHHHHH | not soluble
14 | MGSDKIHHHHHHMKLVSLRLEEGLIEKIDEVARKTLQSRSEIIRSSIALYLSLLENIGFYFKPSLPMKNVDVYEERNAVNVDLGNLTSVSVLSVSYGGVGELELDFRKDLGFVAEVMANQVAVETCCRFITPLLVMLTSTCEFLYTHTFFRMFSEAIRERMKVRTMLAGYEEFFETKQSGFVATVVGLRDMSTRNSPRRGDRIYFFGNAVSGAELSEEELLDMADVERLVGLVKEGKASAIFPVKSGGLKEVADYAAALAGGKAMLFEKRGGCPATAIVLTSAEDLSGYGCELVGEIL | not soluble
15 | MMSDQENENEHAKAFLGLAKCEEEVDAIEREVELYRLNKMKPVYEKRDAYIDEIAEFWKIVLSQHVSFANYIRASDFKYIDTIDKIKVEWLALESEMYDTRDFSITFHFHGIEGDFKEQQVTKVFQIKKGKDDQEDGILTSEPVPIEWPQSYDSINPDLIKDKRSPEGKKKYRQGMKTIFGWFRWTGLKPGKEFPHGDSLASLFSEEIYPFCVKYYAEAQRDLEDEEGESGLSADGDSEDDDGSLGEVDLPLSDEEPSSKKRKV | soluble
16 | MGSDKIHHHHHHMLKINQVKLTQVNLAQINTAKVNTIPAKVVHKMMKKVVITTLIAMNLMQVSFAADVVEKNETKVVAKPVKVAPVLNMPMAAKTELNATLYSRSHIPITASLNARVDYLVEPGDFVAQGDKLAGMDLLPIQLRQAEQKAQISRARINVAYIKNELSRLQALSKTQAVSQFKLDQMRSEHDLAAADLEIAQLKLAQINEQLSRAIITAPFAGIITERLIRVGSEVNRGDILLRLLDTEHLEARLYIPIKYLAFINKGDKLSMSASDQKTLAAVTAKIPRADPRSQTFEVRLNIPKAFNKHWAAGQLVSVSVPTQKATASLTVPRDALILRKSGSYVIKVNADNTVSRLAVVVGKGNKERVAITGSLKHGDNVAIRGAERLADGDKVVIQ | not soluble
17 | MSLTAIHRPTWVSVDLDAAAHNLQEIREWTKAKKVYAVLKADGYGLGAIPLAKAFQETASADALIVSNLDEALELRQADLTLPIWVLGAWDYSDLKLFIDHDIVITIPSLAWLQNLPDFEGTLKVSLAIDTGMTRIGFDKADEISAAKKIIDKNPQLDLFSVYTHFATADEAGEKSKAYFEEQLRRWQELTINQGFDPSLFSMANSATCIWHHDDPRISFAAIRPGQLISGVNVSNGELKMPPNLHLERIFSVCSEIADVRFVKKDQSLSYGASERMPEDGYVATLPFGYNDGWLRRMQKSSVIINGKRMPIIGRITMDQTMVKLDRKYPIGTRVTLIGKDGGEQITVEEVANYSHTIVDEIQTTLAPRIKRIYTGDLAEVIGANYGEGHHHHHH | soluble
